system: MS2 coat protein; experiment: apparent KD of MS2 coat protein, switch OFF state (with FMN for OFF switches, without FMN for ON switches); designed switch direction (-1 OFF switch, 1 ON switch): -1; higher = weaker reporter binding; settings: FMN input: 0 or 200 uM; Eterna round: R93 (includes R88 designs)
Summary of the method: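 Values are apparent KD, taken as the median for each design of fits to normalised binding curves from individual clusters. The designed RNA switches were transcribed on-chip from Illumina sequencing clusters and exposed to SNAP-549-labelled MS2 coat protein at twofold increasing amounts from 0.7 or 1.5 nM to 3 µM. Titration used 100 mM Tris-HCl pH 7.5, 80 mM KCl and 4 mM MgCl2, without or with constant ligand.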

Compared with “UAAAGACAUGAGGAUCACCCAUGUGAGGAUAUCGGAGAUGACGGAACAUCGAGUUCGGCGAGAAGGCGCAGGAA [JR_Exc001_Sub407]”, “AACAGUACAGGAUAUACAUGAGGAUCACCCAUGUGAAAAUUAAGUGGAGUACCACAAGGUAGAAGGGUACUGGA [Mat - Exclusion 3 - Eli mod - D61]” is 3.5-fold higher in “apparent KD of MS2 coat protein” value: 29.2 nM for the first, 101 nM for the second.

Going from “CUCUUGUCAGGAUAUUGAAGAAAAGAAGAGAAAGAAAAGAACAAGAAGGGACAUGAGGAUCACCCAUGUAAGAA [EteRNA is fun!]” to “AAAAAUGGAGGAUAUACAUGAGGAUCACCCAUGUGAGACCAAGAAAAAGAAAAAGAAAGUAGAAGGCCAUAAAA [Ex 3 May 24]”, the “apparent KD of MS2 coat protein” value rises from 66.7 nM to 152 nM (2.3-fold).

“AGGAAACAUGAGGAUCACCCAUGUGAGGAUAUUUGAAAGAAAAGAAAAGAAAGAAGAAGAAGAAGGCACAAGAA [Merneith]” and “AAGUAUAGAGGAUAUACAUAGAUACAGAUUCAUGUAGAACUACAUGAGGAUCACCCAUGUAGAAGGCUAUAAUA [AJ 34]” are within 1.5-fold of each other in “apparent KD of MS2 coat protein” value: 20.5 nM for the first, 27.9 nM for the second.

Going from “AAAAAACAUGAGGAUCACCCAUGUGAGGAUAUGCAAAACCCAAAUAAAAAGAGAAAAAGCAGAAGGCACAACAA [wbt round 1 mod 3]” to “GCAUGCGAAGGAUAUACAUGAGGAUCACCCAUGUGAGAGAAAAAAGUGAGAAAGAAAAGUAGAAGGUCGUGUGG [salish99-ex3-94]”, the “apparent KD of MS2 coat protein” value rises from 13.8 nM to 70.9 nM (5.1-fold).

Going from “CGCAAGUCAGGAUAUUCGACAGGUAAAUCAGUGGAUCAGAAGGAGAAGGGACAUGAGGAUCACCCAUGUAUGUA [JR_Exc004_Sub407]” to “AGAAAACAUGAGGAUCACCCAUGUGAGGAUAUGUAAAAGAAAAGAAAAGAAAGAAGAAACAGAAGGCACAAGAA [Nynetjer]”, the “apparent KD of MS2 coat protein” value rises from 23.1 nM to 45.6 nM (2-fold).

Compared with “AAAAAACAUGAGGAUCACCCAUGUCAGGAUAUACAAAAGAAAAGAAAAAGAAAAGAAAGUAGAAGGGACAAAAA [mod1]”, “AAAAGGUUAGGAUAUGCGUGGAAAAAGUGUAUCUAAAAAAAACAUGAGGAUCACCCAUGUAGAAGGGACUUAAA [Banishment 5 - Jieux - Exclusion 2]” is 1.5-fold higher in “apparent KD of MS2 coat protein” value: 24.6 nM for the first, 37.1 nM for the second.

Compared with “AAGAAGUGAGGAUAUUCGGAUAGGAAAACGAAAACCUAUCCGAAGAAGGCACAUGAGGAUCACCCAUGUAAAAA [Mat - Exaclusion 4 - Eli mod - D41]”, “AAUAAGUGAGGAUAUACUAAAGAAAUGAAAAGAAAUAAAGAACAUGAGGAUCACCCAUGUAGAAGGCACAAUAA [Sekheperenre]” is 2.2-fold lower in “apparent KD of MS2 coat protein” value: 54.3 nM for the first, 24.5 nM for the second.

Going from “AGAAAGUCAGGAUAUCAGAAUAAGUCGAAAACGACUAGUAAUGAGAAGGGACAUGAGGAUCACCCAUGUAAGAA [Ex4 sub 3]” to “AUCGAUCGAGGAUAUACAUGAGGAUCACCCAUGUAAAAAAAAAAAAAGGCCUCAGGACGUAGAAGGCGACGCAA [JR_Exc003_Sub402]”, the “apparent KD of MS2 coat protein” value falls from 37.1 nM to 22.6 nM (1.6-fold).

First: AACUGGCUAGGAUAUACGUAAUAAAAUAUCAGUGAGAUUUCACAUGAGGAUCACCCAUGUAGAAGGAGCAAAAU [Esxereorar]
Second: AGCAAGUGAGGAUAUGCGAAGUCAGGACAAACACUGACGAAGCAGAAGGCACAUGAGGAUCACCCAUGUAAGCA [Mat - Exaclusion 4 - Eli mod - D60]
The “apparent KD of MS2 coat protein” value of the first is 1.8-fold lower: 16.6 nM for the first, 29.8 nM for the second.

“AAAAAGGCAGGAUAUGCAUACACACGAAAAAAAAAACUGGGACAUGAGGAUCACCCAUGUAGAAGGGCCAAAAA [Dora Explored 9 - Jieux - Exclusion 2]” and “GAGUAAGGAGGAUAUACAUGAGGAUCACCCAUGUAAAAAGGGAAAGUAGAAAAGUAGAGUAGAAGGCCUAUAGA [JR_Exc003_Sub1702]” are within 1.5-fold of each other in “apparent KD of MS2 coat protein” value: 41.9 nM for the first, 58.3 nM for the second.

Going from “AAGAUGUCAGGAUAUACAUAAAUAAAAAAUUAUGUUAAAACACAUGAGGAUCACCCAUGUAGAAGGGACAACAA [AJ 6]” to “GUGUACAGAGGAUAUACGGGAGCUAGGAAACUAGCAACCUCACAUGAGGAUCACCCAUGUAGAAGGCUGUACAC [Ex2: 752]”, the “apparent KD of MS2 coat protein” value rises from 20.7 nM to 799 nM (39-fold).

First: AAAAAAGGAGGAUAUACGAACAUGUCAAAAGACGUGAAGGGACAUGAGGAUCACCCAUGUAGAAGGCUUAAAAA [JL Stem Breaker 4]
Second: GAAGAACAUGAGGAUCACCCAUGUCAGGAUAUGCAGAAGGGAAUAAUAACCUCUGGAAGCAGAAGGGACAAGAA [Ex 1 May 48]
The “apparent KD of MS2 coat protein” value of the first is 3.1-fold lower: 19.2 nM for the first, 59.4 nM for the second.

Compared with “GGUGGCGUAGGAUAUACAUGAGGAUCACCCAUGUGAGAGAAAAAAGUGAGAAAGAAAAGUAGAAGGACGUUACG [salish99-ex3-126]”, “AAAAAGGAAGGAUAUACGAACAUGUCGAAAGACGUGAAGGGACAUGAGGAUCACCCAUGUAGAAGGUUCAAAAA [Mat - Exclusion 2 - JL mod - D80]” is 7.6-fold lower in “apparent KD of MS2 coat protein” value: 147 nM for the first, 19.3 nM for the second.

“AAAGGUACAGGAUAUGCGUGGAAAAAGUGUAUUCACCAACGACAUGAGGAUCACCCAUGUAGAAGGGUACCAAA [Mod of wbt1 from round 1]” and “UAUAGACAUGAGGAUCACCCAUGUGAGGAUAUCGGUGACUACAGGACAUCACGUACAAUGAGAAGGCACAGAAA [JR_Exc001_Sub017]” are within 1.5-fold of each other in “apparent KD of MS2 coat protein” value: 31.8 nM for the first, 44.2 nM for the second.

Compared with “AAAAAACAUGAGGAUCACCCAUGUGAGGAUAUCAGUAGUCAGUCCUCGGAGUGAGUACUGAGAAGGCACAUAAA [Brourd 613 Mod 2- Jieux - Exclusion 1]”, “UUUAAGUCAGGAUAUUCGGAUAGGAAAACGAAAACCUAUCCGAAGAAGGGACAUGAGGAUCACCCAUGUAAAAA [Starry Exclusion 4.3 (cataway round 1 mod)]” is 2-fold lower in “apparent KD of MS2 coat protein” value: 113 nM for the first, 56.3 nM for the second.

“AGAAAGUCAGGAUAUGUGGAAAAAAUAAAAAAAAUAAAAACACAGAAGGGACAUGAGGAUCACCCAUGUUAAGA [Mat - Exclusion 4 - Mayanna - D139]” and “AUAGGCCAAGGAUAUACAUGAGGAUCACCCAUGUAAAUAACUCGAUCAAAAUAAACAAGUAGAAGGUGGAAUAA [JR_Exc003_Sub204]” are within 1.5-fold of each other in “apparent KD of MS2 coat protein” value: 30.3 nM for the first, 29.4 nM for the second.

Going from “AAGAAGUCAGGAUAUACUAAAGAAAUAAAAAGAAAGAAAGAACAUGAGGAUCACCCAUGUAGAAGGGACAAGAA [Sewadjare Mentuhotep V]” to “AAGGUACGAGGAUAUACAUAGAUACAGACACAUGUAGAUGUACAUGAGGAUCACCCAUGUAGAAGGCGUAUAUA [AJ 20]”, the “apparent KD of MS2 coat protein” value rises from 31.7 nM to 97.5 nM (3.1-fold).

Compared with “AAAAAACAUGAGGAUCACCCAUGUCAGGAUAUCGUCAUAGAUGCAAAAGCAUCUAUGACGAGAAGGGACAUGCC [JL EX1 03]”, “AAAAGCACAGGAUAUACAAGGAUAUGACGAAAGUCAUAAAAACAUGAGGAUCACCCAUGUAGAAGGGUGCAAAA [Mod of Meechl's... 64% 3]” is 2.1-fold higher in “apparent KD of MS2 coat protein” value: 64.6 nM for the first, 136 nM for the second.

First: AACAGGACAGGAUAUACAUGAGGAUCACCCAUGUAGGAAACAAGCAGAGUACCAAACAGUAGAAGGGUCAUGGA [Ruby 29]
Second: CUCAAGUGAGGAUAUCAGUAGUAAAAAAAUAAAAUUACUACUGAGAAGGCACAUGAGGAUCACCCAUGUGUCUU [EX4 333: Super Stable 33]
The “apparent KD of MS2 coat protein” value of the first is 4.5-fold higher: 50.3 nM for the first, 11.1 nM for the second.

“AAAAAACAUGAGGAUCACCCAUGUAAGGAUAUACCUAAAAAAAAAAAAAAAAAAAAUGGUAGAAGGUACAAAAA [excalibur12]” and “AGAAAGGUAGGAUAUACGAAAAAAAAGGGUAGAAAAAAAACACAUGAGGAUCACCCAUGUAGAAGGACCAAAGA [Mat - Exclusion 2 - Tesla mod - D31]” are within 1.5-fold of each other in “apparent KD of MS2 coat protein” value: 67.5 nM for the first, 47.5 nM for the second.

Compared with “GAAAGGUCAGGAUAUACGUUAUGCUAGUGCUCGUACUAUAAGUAGAAGGGACAUGAGGAUCACCCAUGUGAUAA [Kawasakiqro]”, “GCUGUCGAAGGAUAUACAUGAGGAUCACCCAUGUGAGAGAAAAAAGUGAGAAAGAAAAGUAGAAGGUCGGUAGG [salish99-ex3-97]” is 1.6-fold lower in “apparent KD of MS2 coat protein” value: 58.3 nM for the first, 35.7 nM for the second.

“AAAAUACAUGAGGAUCACCCAUGUUAGGAUAUCGGAUAAAUAAAAUAAAAUAAAAUAACGAGAAGGGACAAUAA [Exclusion1 Malc#2]” and “AAAAAACAUGAGGAUCACCCAUGUGAGGAUAUCGGUAGUGAGGGUAUAGUGUCAAUAGUGAGAAGGCGCAUAAA [Brourd 613 Mod 13 - Jieux - Exclusion 1]” are within 1.5-fold of each other in “apparent KD of MS2 coat protein” value: 31.6 nM for the first, 28 nM for the second.

In the case of “GAGGAGUCAGGAUAUCGGGAAAGGUUGAGGAAGAGAAGAAGCGAGAAGGGACAUGAGGAUCACCCAUGUAGAAG [Default title]”, the “apparent KD of MS2 coat protein” value is reported as 40.3 nM.

Source: the supplement of paper PMC9170038
